For data set [1], the system named is injured coronary artery segments. Nature of the data set: Percutaneous transluminal coronary angioplasty (balloon injury) study. The source says: Porcine platelets and fibrinogen were labeled with ^111Indium and ^125Iodine respectively for infusion into pigs. […] Oral ASA was given to all pigs for at least three day prior to the coronary angioplasty procedure, and heparin (100 U/kg) was given at the time of the angioplasty. One to three days prior to the angioplasty an external jugular line was inserted to administer the labeled platelets and fibrin, CD39 or saline, and to facilitate blood draws. Labeled platelets and fibrinogen were given approximately 18 hours prior to balloon injury. Coronary arteries were injured using an oversize balloon. A coronary guide catheter was first advanced into the ascending aorta. An oversized balloon was then advanced into a coronary vessel and inflated at 6 to 8 atmospheres for a total of thirty seconds. The balloon was then deflated and withdrawn. The average ratio of balloon size to vessel size was 1.32 for the placebo group and 1.29 for the CD39 group.
Platelet aggregation and bleeding time were measured 30 minutes after administration. […] Moreover, no bleeding was noted during PTCA or after sheath removal and there was no significant difference in hematocrit or platelet counts between the groups.
After the radioactivity decayed, toluidine-blue stained injured coronary artery segments were examined histologically, in order to further characterize the extent of thrombus formation. A blinded observer qualitatively evaluated the degree of histologic injury in the coronary segments by assessing, on a scale of 1-4 with 4 being the most severe injury, the severity of medial and internal elastic lamina tear, medial separation, and hemorrhage. A composite injury score was obtained by totaling, the three individual scores. The medial injury scores for the placebo and CD39 groups were 2.5 and 2.2 respectively; medial separation scores for the placebo and CD39 groups were 2.0 and 1.6 respectively; the degree of hemorrhage for the placebo and CD39 groups were 2.3 and 2.5 respectively. The composite injury scores for the placebo and CD39 groups were […] and 6.2 respectively. These in vivo results correlate well with results, reported herein, obtained in vitro and ex vivo.

Data set [2] can be described thus: Mouse lung ischemia-reperfusion survival model. The class given is in vivo, C57BL/6 mice. The settings on record: 8 mg/kg i.v. Here is the method: C57BL/6 mice were anesthetized and ventilated, and their thoraces were opened to surgically expose both pulmonary hila. Either physiological saline or soluble CD39 (8 mg/kg) was administered intravenously, after which the left pulmonary hilum was cross-clamped for one hour. The cross-clamp was removed for three hours of reperfusion, and then a cross-clamp was applied to the right hilum for a thirty minute observation period. This latter maneuver effectively removed the normal lung from circulation, so that the mouse must survive on the function of the post-ischemic left lung. The results are shown, in the form of a Kaplan-Meier survival plot, in FIG. 23.

A further data set concerns platelets. In words: Platelet aggregation in human platelet-rich plasma. The class given is cell-based. Here is the method:
After obtaining informed consent from volunteers, blood was collected via plastic tubing using acid citrate-dextrose (38 mM citric acid; 75 mM sodium citrate; 135 mM glucose) as anticoagulant. Where indicated, volunteers had ingested 650 mg acetylsalicylic acid (ASA) 18 h prior to blood donation. […] The stock suspension of PRP was maintained at room temperature under 5% CO2-air. […] Total volumes were adjusted to 300 μl with TSG buffer (Marcus et al., J. Clin. Invest. 88:1690, 1991; Marcus et al., J. Clin. Invest. 99:1351, 1997). […] A mock-treated sample was also prepared in which the FSBA solution was replaced with water. After incubating at 37° for 90 min., the samples were centrifuged in a Centricon-10 filter unit (Amicon Corp.) for 1 hour at 5,500 rpm and buffer exchanged into PBS to remove unreacted material.

On the set-up of data set [3]: species or system pigs. The settings on record: pig, in vivo. Here is the method:
Aspirin was administered orally on a daily basis. Placebo controls consisted of aspirin. Saline controls and solCD39 were administered as a single bolus. Time points were measured following this administration. Blood samples were obtained via an external jugular vein catheter. […] ADP-induced platelet aggregation was measured at specific time intervals following administration. The concentration of CD39 in serum as a function of time was measured using an ELISA assay. Distribution and clearance half-lives were determined using a biphasic curve fit.

For another data set, the system named is mouse platelets. In words: Reversal of ADP-induced aggregation of mouse platelets in vitro. The class given is cell-based. The following applies: 5 μM ADP; soluble CD39 2.5 or 1.25 μg/ml. Here is the method: ADP (5 μM) was added to mouse platelets in vitro to induce an aggregation response. Soluble CD39 (2.5 μg/ml or 1.25 μg/ml) was added at the peak of the aggregation response.

A short description of data set [4]: Phosphate release assay for ATPase activity. It is filed as biochemical. The following applies: for ATPase activity, CPM × 10^3 (net counts): Table 3, 5-day 1× COS-1 sups. Here is the method:
This example describes an ATPase assay that may be used to track enzyme activity. Samples (approximately 100 μl of either concentrated CM or purified polypeptide) are combined with 20 μl of 10× assay buffer (200 mM HEPES, 1.2 M NaCl, 50 mM KCl, 15 mM CaCl2, 15 mM MgCl2 and 3 mM ATP) and sterile water is added to a final volume of 200 μl. Radiolabeled ATP (0.8 μCi γ [^32P] ATP; Amersham, Arlington Heights, Ill.) is added and the mixture incubated for 20 minutes at 37° C. […] After centrifugation (14K rpm for 10 minutes), the supernatant is assayed for free ^32P using a scintillation counter. Data are expressed as raw counts or net counts, or as picomoles of ATP degraded per minute. […] The transfections were repeated and the CM (10, 20 and 30 μL, unconcentrated) was assayed essentially as described in Example 7. […] ATPase levels in CM from COS-1 cells transfected with pIL2LFlagSolCD39 increased with time in culture over at least 4 days post-transfection. To determine whether activity was affected by removal of the N-terminal FLAG® tag, COS-1 cells were transfected with pIL2LFlagSolCD39 and pIL2LSolCD39 and supernatants (sups) were harvested after 5 days. Samples of 10, 20 and 30 μL of 1× sups were assayed for ATPase activity as described in Example 7. […] The expression of Trim1 and Trim2 constructs was analyzed in COS-1 cells cultured in 10 cm plates. After 5 days of incubation, 1× supernatants were examined via ELISA (using anti-CD39) and the phosphate-release assay described in Example 7. […] Expression levels, however, appeared to be reduced 3-4 fold.

Where [5] appears, read: 670 μg/kg i.v. plus heparin and ASA, 24 hours after balloon injury.

B1: solCD39: recombinant soluble human CD39, untagged: 12 mature huIL2 residues, three amino acid linker, sol CD39 (SEQ ID NO:7) (protein)
chain: MALWIDRMQLLSCIALSLALVTNSAPTSSSTKKTQLTSSTQNKALPENVKYGIVLDAGSSHTSLYIYKWPAEKENDTGVVHQVEECRVKGPGISKFVQKVNEIGIYLTDCMERAREVIPRSQHQETPVYLGATAGMRLLRMESEELADRVLDVVERSLSNYPFDFQGARIITGQEEGAYGWITINYLLGKFSQKTRWFSIVPYETNNQETFGALDLGGASTQVTFVPQNQTIESPDNALQFRLYGKDYNVYTHSFLCYGKDQALWQKLAKDIQVASNEILRDPCFHPGYKKVVNVSDLYKTPCTKRFEMTLPFQQFEIQGIGNYQQCHQSILELFNTSYCPYSQCAFNGIFLPPLQGDFGAFSAFYFVMKFLNLTSEKVSQEKVTEMMKKFCAQPWEEIKTSYAGVKEKYLSEYCFSGTYILSLLLQGYHFTADSWEHIHFIGKIQGSDAGWTLGYMLNLTNMIPAEQPLSTPLSHST
B1: in data set [1] (setting [5]), the “Fibrin Deposition Ratio” value was found to be 0.62 ± 0.10 and the “Platelet Deposition Ratio” value was determined as 1.25 ± 0.19. Besides, in data set [1] (30 minutes after administration), the “Bleeding Time” value is 7.00 ± 0.81. For the same molecule, in data set [1] (histology, scale of 1-4), the medial injury score turned out to be 2.2 and the medial separation score stood at 1.6. Further, the degree of hemorrhage in data set [1] (pig, in vivo) is on record as 2.5. Further, the tolerability entry in data set [1] (pigs, PTCA) is listed as “well tolerated”. This molecule gave a composite injury score in data set [1] (total of three scores) of 6.2. Moreover, the “survival at thirty minutes on post-ischemic lung” value in data set [2] is “survived”. Further, the “platelet aggregation induced by 10 μM ADP” value with platelets (3.3 μg/ml solCD39, PRP from aspirin-ingesting donor) is “abruptly terminated”. Moreover, the “induction of platelet activation by ADP or collagen” value in the data set on platelets (ASA-treated PRP, 10 μM ADP (4.4 μg/ml) or collagen (22 μg/ml)) was “significantly inhibited”. Also, the “effect on collagen-induced aggregation with increasing quantity” value in the data set with platelets (PRP from aspirin-ingesting donor) was “dose dependent”. For the same molecule, the “platelet responsiveness to 5 μM ADP” value in the data set with platelets (PRP with or without 10 μM indomethacin, CM containing solCD39 from COS-1 and CHO cells) is “completely abrogating”. In the data set with platelets (collagen 1 μg/ml, PRP), the “platelet aggregation response to collagen” value was “markedly reduced”. Further, in data set [3], the “elimination half-life of biological activity (ADPase activity)” value is on record as 5-7 days and the “t1/2α (distribution phase)” value amounted to 29 min. The “aggregation response when added at the peak” value in the data set with mouse platelets is on record as “immediately reversed”. For the same molecule, the “ATPase activity, CPM × 10^3 (net counts)” value in data set [4] (10 μL) is 20.1 CPM × 10^3. For the same molecule, in data set [4] (20 μL), the “ATPase activity, CPM × 10^3 (net counts)” value was 36.0 CPM × 10^3. The “ATPase activity, CPM × 10^3 (net counts)” value in data set [4] (30 μL) stood at 51.0 CPM × 10^3. The “Activity (pmol ATP/min/μg) × 10^3” value in data set [4] (specific activity in COS-1 CM, concentration by ELISA) is on record as 5.67 (pmol ATP/min/μg) × 10^3.

Values taken from patent publication US7264809B1, “Methods of inhibiting platelet activation and recruitment” (Immunex Corporation, priority 1998, dated 2007).
